Results taken from patent US20150283227A1, “SYNTHETIC ENV PROTEINS” (priority 2012, published 2015).
Values joined by “and” are separate entries in the source; they are usually repeats but may differ in a detail not shown here. Equal entries are not always repeated. Where two headings read alike, the source gives them in different places. Where a SMILES comes first, the peptide text is derived from it. [ ]: non-standard residue; d: D form. The star is where a group is joined. ξ: configuration not given here. X1 = CC(=O)NC1C(O)[C@H](O)C(CO)O[C@H]1O[C@@H]1C(CO)O[C@@H](N*)C(NC(C)=O)C1O; Orn(CH(NH2)2) = NC(N)NCCC[C@H](N)C(=O)O; Ile(3ξ) = CCC(C)[C@H](N)C(=O)O; Thr(3ξ) = CC(O)[C@H](N)C(=O)O

How the values were obtained:
[1] = biological target: Man5GlcNAc2 V1V2 glycopeptide, DMSO-oxidized disulfide-linked dimer (HIV-1 strain AE.CM244 (A244)); assay: SPR kinetics, DMSO-oxidized dimer injected over captured mAb
[2] = biological target: Man5GlcNAc2 V1V2 (1), not deliberately oxidized (HIV-1 strain AE.CM244 (A244)); assay: SPR, BIAcore 3000, PG9 captured on anti-human Ig Fc, glycopeptide as analyte; 1:1 Langmuir global fit
[3] = biological target: Man3GlcNAc2 V1V2 (2), not deliberately oxidized (HIV-1 strain AE.CM244 (A244)); assay: as above
[4] = biological target: Man5GlcNAc2 V1V2 glycopeptide, DMSO-oxidized disulfide-linked dimer (HIV-1 strain AE.CM244 (A244)); assay: SPR kinetics, mAb captured on anti-IgG, DMSO-oxidized dimer injected; 1:1 Langmuir
[5] = biological target: Man3GlcNAc2 V1V2 glycopeptide, DMSO-oxidized disulfide-linked dimer (HIV-1 strain AE.CM244 (A244)); assay: as above
PG9 = conditions: NMR studies, Man5GlcNAc2-Asn alone; read-out: Kd for binding of PG9; cited from earlier work
[6] = biological target: Man5GlcNAc2 V1V2 glycopeptide, DMSO-oxidized disulfide-linked dimer (HIV-1 strain AE.CM244 (A244)); assay: SPR kinetics, DMSO-oxidized dimer; reference PG9
[7] = biological target: Man5GlcNAc2 V1V2 glycopeptide, DMSO-oxidized disulfide-linked dimer (HIV-1 strain AE.CM244 (A244)); assay: SPR kinetics, DMSO-oxidized dimer; reference CH58 UCA
[8] = biological target: Man5GlcNAc2 V1V2 glycopeptide, DMSO-oxidized disulfide-linked dimer (HIV-1 strain AE.CM244 (A244)); assay: SPR kinetics, mAb captured on anti-IgG, DMSO-oxidized dimer injected; faster component of the dissociation phase
[9] = biological target: Man3GlcNAc2 V1V2 glycopeptide, DMSO-oxidized disulfide-linked dimer (HIV-1 strain AE.CM244 (A244)); assay: as above
V2 mAb CH58 = assay: SPR binding of V1V2 peptides/glycopeptides to captured V2 mAb CH58; set-up: species or system human; conditions: Example 6; peptide solubilized/oxidized in DMSO, 1-50 μg/mL
PG9 UCA = assay: SPR binding to unmutated ancestor of PG9; set-up: species or system human
Experimental: (§1) Only the V1/V2 mAb CH58 bound to the glycan-deficient (aglycone) peptide (FIG. 9A). V1/V2 bNAbs ([…], CH01) bound weakly to V1/V2 GlcNAc2 peptide (FIG. 9B). In contrast, both bNAbs PG9 and CH01 bound avidly to the glycopeptides, V1/V2 Man3GlcNAc2 and V1/V2 Man5GlcNAc2 (FIGS. 9C and 9D). CH58 bound weakly to both glycopeptides. Each of the mAbs was captured on a human Fc specific IgG directly immobilized on a BIAcore CM5 sensor chip. Each of the V1/V2 peptides (3 min at 50 uL/min) was injected over the mAb captured surface and SPR binding was monitored on a BIAcore 3000 instrument. Non-specific binding of peptides was subtracted following measurement of signal on a surface with a control ant-RSV mab Synagis.
(§2) The binding Kd (disassociation constant) of the UAs ranges from about 0.15 to 0.2 μM.
(§3) V1V2 glycopeptide binding Kd and rate constant measurements were carried out on BIAcore 3000 instruments as described earlier (Alam et al, Immunol. 178(7):4424-4435 (2007), Alam et al, J. Virol. 82(1):115-125 (2008)). Anti-human IgG Fc antibody (Sigma Chemicals) was immobilized on either a CM3 or CM5 (CM3 for kinetics and Kd determination) sensor chip (to minimize non-specific binding of peptides to chip matrix) to about 5000 Resonance Unit (RU) and each antibody was captured to about 100-200 RU on individual flow cells, in addition to one flow cell with the control Synagis mAb on the same sensor chip. Non-specific binding of V1V2 glycopeptide was double-referenced by substracting the control surface and blank buffer flow for each mAb-V1V2 glycopeptide binding interaction. […] SPR curve fitting analysis was performed using global fit of multiple titrations to the 1:1 Langmuir model. All data analysis was performed using the BIAevaluation 4.1 analysis software (GE Healthcare).

BnAb CH01 = assay: SPR binding of V1V2 peptides/glycopeptides to captured mAb CH01; set-up: species or system human
CH01 UCA = assay: SPR binding to unmutated ancestor of CH01; set-up: species or system human
Experimental: as §1, §2, §3

[10] = Circular dichroism analysis of V1V2 peptides; assay type: physicochemical; conditions: dimerized in 20% DMSO-phosphate buffer about 20 h
Experimental: Circular dichroism (CD) spectra of V1/V2 peptides were measured on an Aviv model 202 spectropolarimeter using a 1 mm path length quartz cuvette. The 20% DMSO-treated peptides were dialyzed against 20 mM phosphate buffer, pH 7.0 to remove DMSO using a dialysis cassette of MW cut-off 3500 Da. The CD spectra of peptides (at 100 200 μg/ml concentration) in phosphate buffer (pH 7.4) were recorded at 25° C. Three scans of the CD spectra of each peptide were averaged and the CD signal from phosphate buffer was subtracted out.

V2 mAb CH59 = assay: SPR binding of V1V2 peptides to captured V2 mAb CH59; set-up: species or system human; conditions: Example 6; peptide oxidized by solubilization in DMSO, 50 ug/mL
From the text: FIGS. 42A-42D. Selective binding of V1V2 BnAbs to mannose derivatized V1V2 glycopeptides but not to aglycone or GlcNAc2 V1V2 peptides. SPR curves showing preferential binding of PG9 and CH01 BnAbs to Man5—(FIG. 42A) and Man3—(FIG. 42B) GlcNAc2 V1V2 glycopeptides but not to GlcNAc2 (FIG. 42C) and aglycone (FIG. 42D) peptides. By contrast, V2 mAbs CH58 and CH59 bound to both aglycone ([…]) and GlcNAc2 (FIG. 42D) V1V2 peptides. Each V1V2 peptide was oxidized by solubilization in DMSO and injected over the indicated MAb at 50 ug/mL. Data shown is after reference subtraction of non-specific signal measured over the control mAb (Synagis). Binding data are representative of at least three experiments for Man5 and Man3 V1V2 peptides and two experiments for GlcNAc2 and aglycone V1V2.
V1V2 glycopeptide binding Kd and rate constant measurements were carried out on BIAcore 3000 instruments as described earlier (Alam et al, Immunol. 178(7):4424-4435 (2007), Alam et al, J. Virol. 82(1):115-125 (2008)). Anti-human IgG Fc antibody (Sigma Chemicals) was immobilized on either a CM3 or CM5 (CM3 for kinetics and Kd determination) sensor chip (to minimize non-specific binding of peptides to chip matrix) to about 5000 Resonance Unit (RU) and each antibody was captured to about 100-200 RU on individual flow cells, in addition to one flow cell with the control Synagis mAb on the same sensor chip. […]

CH58 UCA = assay: SPR binding to unmutated ancestor of CH58; set-up: species or system human; conditions: Example 1
Experimental: as §1, §3

BnAb PG9 = assay type: binding, human
Experimental: V1V2 glycopeptide binding Kd and rate constant measurements were carried out on a BIAcore 3000 instrument using an anti-human Ig Fc capture assay as described earlier (Alam, S. M.; McAdams, M.; Boren, D.; Rak, M.; Scearce, R. M.; Gao, F.; Camacho, Z. T.; Gewirth, D.; Kelsoe, G.; Chen, P.; Haynes, B. F. J. Immunol. 2007, 178, 4424-4435.). Anti-human IgG Fc antibody (Sigma Chemicals) was immobilized on a CM5 sensor chip to about 10000 response units (RU), and each antibody was captured to about 300 RU. Anti-RSV Synagis mAb was captured on the same sensor chip as a control surface. Non-specific binding and drift in signal was double referenced by subtracting binding to the control surface and blank buffer flow for each of the peptide binding interactions. All curve-fitting analyses were performed using global fit of multiple titrations to the 1:1 Langmuir model. All data analysis was performed using the BIAevaluation 4.1 analysis software (GE Healthcare).

[11] = biological target: Man5GlcNAc2 V1V2 glycopeptide, DMSO-oxidized disulfide-linked dimer (HIV-1 strain AE.CM244 (A244)); assay: SPR, DMSO-oxidized dimer 1-10 µg/mL over CH58 UCA captured on anti-IgG
[12] = biological target: Man3GlcNAc2 V1V2 glycopeptide, DMSO-oxidized disulfide-linked dimer (HIV-1 strain AE.CM244 (A244)); assay: as above
[13] = biological target: Man5GlcNAc2 V1V2 glycopeptide, DMSO-oxidized disulfide-linked dimer (HIV-1 strain AE.CM244 (A244)); assay: SPR kinetics, DMSO-oxidized dimer; reference CH01
[14] = Example 6, peptide solubilized/oxidized in DMSO, 50 μg/mL

## PG9 (antibody)
[1]
  fold higher affinity than CH01 for the same peptide: 2 fold
[2]
  Kd: 0.311 µM
[3]
  Kd: 0.119 µM
[4]
  Kd: 0.0294 µM
  koff: 0.000271 s⁻¹
  kon: 9200 M⁻¹ s⁻¹
[5]
  Kd: 0.0371 µM
  koff: 0.000147 s⁻¹
  kon: 3970 M⁻¹ s⁻¹

## CC(=O)N[C@@H]1[C@@H](O)[C@H](O[C@@H]2O[C@H](CO)[C@@H](O[C@@H]3O[C@H](CO[C@H]4O[C@H](CO[C@H]5O[C@H](CO)[C@@H](O)[C@H](O)[C@@H]5O)[C@@H](O)[C@H](O[C@H]5O[C@H](CO)[C@@H](O)[C@H](O)[C@@H]5O)[C@@H]4O)[C@@H](O)[C@H](O[C@H]4O[C@H](CO)[C@@H](O)[C@H](O)[C@@H]4O)[C@@H]3O)[C@H](O)[C@H]2NC(C)=O)[C@@H](CO)O[C@H]1NC(=O)C[C@H](N)C(=O)O [Man5GlcNAc2-Asn]
PG9
  Kd: 1000 to 2000 µM and 1600 µM

## PG9 UCA (antibody)
[6]
  fold weaker binding than the mature BnAb: 3 fold
[7]
  fold higher affinity than the UCA of CH58: 5 fold
[8]
  Kd: 0.0976 µM
  koff: 0.000723 s⁻¹
[9]
  Kd: 1.06 µM
  koff: 0.00566 s⁻¹
[4]
  kon: 7410 M⁻¹ s⁻¹
[5]
  kon: 5330 M⁻¹ s⁻¹

## CCC(C)[C@H](NC(=O)[C@@H]1CCCN1C(=O)[C@@H](NC(=O)[C@@H](NC(=O)[C@H](CC(=O)O)NC(=O)[C@H](CC(C)C)NC(=O)[C@H](CCCCN)NC(=O)[C@H](Cc1ccc(O)cc1)NC(=O)[C@H](Cc1ccccc1)NC(=O)[C@H](CC(C)C)NC(=O)[C@H](C)NC(=O)[C@H](Cc1cnc[nH]1)NC(=O)[C@@H](NC(=O)[C@H](CCCCN)NC(=O)[C@H](CCC(N)=O)NC(=O)[C@H](CCCCN)NC(=O)[C@H](CCCCN)NC(=O)[C@H](CC(=O)O)NC(=O)[C@H](CCCNC(=N)N)NC(=O)[C@H](CC(C)C)NC(=O)[C@H](CCC(=O)O)NC(=O)[C@@H](NC(=O)[C@@H](NC(=O)[C@H](CCSC)NC(=O)[C@H](CC(=O)N[C@@H]1OC(CO)[C@@H](O[C@@H]2OC(CO)[C@@H](O)C(O)C2NC(C)=O)C(O)C1NC(C)=O)NC(=O)[C@H](Cc1ccccc1)NC(=O)[C@H](CO)NC(=O)[C@H](CS)NC(=O)[C@H](CC(=O)N[C@@H]1OC(CO)[C@@H](O[C@@H]2OC(CO)[C@@H](O)C(O)C2NC(C)=O)C(O)C1NC(C)=O)NC(=O)[C@H](CCCNC(N)N)NC(=O)[C@@H](NC(=O)[C@H](CCC(=O)O)NC(=O)[C@H](CC(=O)O)NC(=O)[C@@H](NC(=O)[C@@H](NC(C)=O)C(C)CC)C(C)O)C(C)C)C(C)O)C(C)O)C(C)C)C(C)CC)C(C)C)C(N)=O (stereo partly drawn) [GlcNAc2 V1V2] (Ac-[Ile(3ξ)][Thr(3ξ)]DEV[Orn(CH(NH2)2)]D(X1)CSFD(X1)M[Thr(3ξ)][Thr(3ξ)]ELRDKKQKVHALFYKLD[Ile(3ξ)]VP[Ile(3ξ)]-NH2)
V2 mAb CH58
  SPR binding to CH58: retained
PG9 UCA; Example 1
  SPR binding to PG9 UA: no binding
PG9 UCA; Example 6
  SPR binding to PG9 UCA: neither UCAs bound
BnAb CH01; Example 1, peptide injected over captured mAb
  SPR binding to CH01: bound weakly
BnAb CH01; [14]
  SPR binding to CH01: no binding
CH01 UCA; Example 1
  SPR binding to CH01 UA: slow association indicating weak affinity interaction
CH01 UCA; Example 6
  SPR binding to CH01 UCA: neither UCAs bound
[10]
  β-strand (CD spectra deconvolution, K2D3): 17%
V2 mAb CH59
  SPR binding to CH59: bound
CH58 UCA
  SPR binding to CH58 UA: no binding
BnAb PG9; Example 1, peptide injected over mAb captured on anti-human Fc, BIAcore 3000
  SPR binding to PG9: bound weakly
BnAb PG9; Example 5, peptides 200 μg/mL, glycans 25 μg/mL over captured PG9, listed as 3
  SPR binding to PG9: did not bind
BnAb PG9; Example 5, peptides 200 μg/mL, glycans 25 μg/mL over captured PG9, listed as V1V2 GlcNAc2
  SPR binding to PG9: minimal to no binding
BnAb PG9; [14]
  SPR binding to PG9: no binding

## CH58 UCA (antibody)
[11]
  Kd: 0.5 µM
[12]
  Kd: 0.6 µM

## CH01 UCA (antibody)
[7]
  fold higher affinity than the UCA of CH58: 5 fold
[8]
  Kd: 0.118 µM
  koff: 0.000721 s⁻¹
[9]
  Kd: 1.78 µM
  koff: 0.00363 s⁻¹
[4]
  kon: 8490 M⁻¹ s⁻¹
[5]
  kon: 2060 M⁻¹ s⁻¹
[13]
  fold weaker binding than the mature BnAb: 3 fold
